In patent US20250043302A1, “MUTATED HYDROXYPHENYLPYRUVATE DIOXYGENASE POLYPEPTIDE, AND CODING GENE AND USE THEREOF” (BEIJING DABEINONG BIOTECHNOLOGY CO., LTD., priority 2021, published 2025):

Tests used:
Type in all cases: in vivo
[1] = system: Arabidopsis thaliana T1 plants; experiment: Mesotrione tolerance of transgenic Arabidopsis thaliana T1 plants (spray, bleached leaf area grade, damage score); parameters: Scores: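 damage score 0-100 computed as Σ(N×S)/(T×M)×100 over grades 0-3 with higher meaning more damage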; conditions: Arabidopsis thaliana T1 plants; for Grade 0 (classification and statistics of the grade of pesticide damage; number of plants) / Grade 1 (classification and statistics of the grade of pesticide damage; number of plants) / Grade 2 (classification and statistics of the grade of pesticide damage; number of plants) / Grade 3 (classification and statistics of the grade of pesticide damage; number of plants): 16 plants
Method in brief: (§1)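 T1 transformants selected by glufosinate; 18-day-old plants, with empty-vector and wild-type controls, sprayed with topramezone (25–200 g ai/ha), isoxaflutole (35–280 g ai/ha) or mesotrione (52.5–420 g ai/ha), water as 0×. Bleached leaf area fraction scored at 7 DAT as grades 0–3.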

[2] = system: Arabidopsis thaliana T1 plants; experiment: Topramezone tolerance of transgenic Arabidopsis thaliana T1 plants (spray, bleached leaf area grade, damage score); conditions: 7 DAT, Table 4; for Classification and statistics of the grade of pesticide damage: Grade 0 / Classification and statistics of the grade of pesticide damage: Grade 1 / Classification and statistics of the grade of pesticide damage: Grade 2 / Classification and statistics of the grade of pesticide damage: Grade 3: number of plants; for Scores: pesticide damage score 0-100
Method in brief: as §1

[3] = system: Arabidopsis thaliana T1 plants; experiment: Isoxaflutole tolerance of transgenic Arabidopsis thaliana T1 plants (spray, bleached leaf area grade, damage score); parameters: Scores (pesticide damage): scale not given here; conditions: spray, Arabidopsis thaliana T1 plants; for Classification and statistics of the grade of pesticide damage: Grade 0 (number of plants) / Classification and statistics of the grade of pesticide damage: Grade 1 (number of plants) / Classification and statistics of the grade of pesticide damage: Grade 2 (number of plants) / Classification and statistics of the grade of pesticide damage: Grade 3 (number of plants): 16 plants
Method in brief: as §1

[4] = isoxaflutole 35 g ai/ha (0.5x field concentration)
[5] = isoxaflutole 70 g ai/ha (1x field concentration)

Molecule	Resistance evaluation ([1]; mesotrione 52.5 g ai/ha)	Scores ([1]; mesotrione 52.5 g ai/ha)	Grade 0 (classification and statistics of the grade of pesticide damage; number of plants) ([1]; mesotrione 52.5 g ai/ha)	Grade 1 (classification and statistics of the grade of pesticide damage; number of plants) ([1]; mesotrione 52.5 g ai/ha)	Grade 2 (classification and statistics of the grade of pesticide damage; number of plants) ([1]; mesotrione 52.5 g ai/ha)	Grade 3 (classification and statistics of the grade of pesticide damage; number of plants) ([1]; mesotrione 52.5 g ai/ha)	Resistance evaluation ([1]; mesotrione 105 g ai/ha)	Scores ([1]; mesotrione 105 g ai/ha)	Grade 0 (classification and statistics of the grade of pesticide damage; number of plants) ([1]; mesotrione 105 g ai/ha)	Grade 1 (classification and statistics of the grade of pesticide damage; number of plants) ([1]; mesotrione 105 g ai/ha)	Grade 2 (classification and statistics of the grade of pesticide damage; number of plants) ([1]; mesotrione 105 g ai/ha)	Grade 3 (classification and statistics of the grade of pesticide damage; number of plants) ([1]; mesotrione 105 g ai/ha)	Classification and statistics of the grade of pesticide damage: Grade 0 ([2]; topramezone 25 g ai/ha (1×))	Classification and statistics of the grade of pesticide damage: Grade 1 ([2]; topramezone 25 g ai/ha (1×))	Classification and statistics of the grade of pesticide damage: Grade 2 ([2]; topramezone 25 g ai/ha (1×))	Classification and statistics of the grade of pesticide damage: Grade 3 ([2]; topramezone 25 g ai/ha (1×))	Classification and statistics of the grade of pesticide damage: Grade 0 ([2]; topramezone 100 g ai/ha (4×))	Classification and statistics of the grade of pesticide damage: Grade 1 ([2]; topramezone 100 g ai/ha (4×))	Classification and statistics of the grade of pesticide damage: Grade 2 ([2]; topramezone 100 g ai/ha (4×))	Classification and statistics of the grade of pesticide damage: Grade 3 ([2]; topramezone 100 g ai/ha (4×))	further results
HvHPPD-02: nucleotide sequence encoding wild-type Hordeum vulgare HPPD; vector DBN11762 (nucleic acid, HvHPPD-02 Nucleotide Sequence, vector DBN11762) DNA: ATGCCGCCGACGCCCACCACCCCAGCAGCTACCGGAGCTGCGGCTGCAGTAACCCCTGAGCATGCTCGGCCCCACAGGATGGTGAGGTTTAATCCAAGATCAGATCGTTTTCATACACTCTCGTTCCACCATGTTGAGTTCTGGTGCGCCGACGCGGCTTCAGCGGCCGGGAGGTTCGCCTTCGCGCTGGGGGCCCCTCTTGCCGCGCGTAGTGATTTGTCTACTGGGAATTCAGCGCACGCGTCCCAGCTTCTCCGAAGCGGCAGTCTCGCCTTTCTCTTCACTGCACCATATGCAAATGGATGTGATGCAGCAACTGCTTCCCTGCCGAGCTTTTCTGCGGATGCCGCGAGGCGATTCAGTGCTGACCATGGGATCGCCGTCCGGTCAGTTGCTCTTAGAGTGGCTGATGCTGCTGAGGCATTCAGGGCTTCAAGGCGTCGTGGTGCACGCCCGGCGTTTGCCCCGGTTGATCTTGGGCGGGGGTTTGCTTTTGCAGAGGTGGAGCTGTACGGCGACGTGGTGCTCCGATTTGTTTCTCACCCGGACGGCACTGATGTGCCCTTCTTGCCAGGATTTGAAGGTGTGACCAACCCTGATGCCGTGGATTATGGACTCACAAGATTTGATCATGTGGTTGGCAATGTTCCTGAATTGGCACCTGCTGCCGCTTACATCGCAGGTTTTACTGGCTTCCATGAATTTGCTGAATTCACGGCGGAGGATGTTGGTACAACTGAGTCAGGGCTGAACAGTGTTGTTTTAGCCAACAACTCAGAAGGAGTTCTCCTTCCCTTGAATGAACCTGTTCATGGAACCAAGCGCCGCTCCCAAATTCAAACATTTCTTGAGCACCACGGCGGCCCTGGTGTTCAACATATTGCTGTCGCCTCTAGCGACGTCCTGCGTACATTACGCAAGATGAGGGCTCGGTCCGCAATGGGTGGTTTCGACTTCCTCCCTCCACCATTGCCAAAATATTATGAAGGCGTCAGAAGACTTGCAGGAGATGTCCTCTCTGAAGCTCAGATCAAGGAGTGCCAAGAACTTGGCGTCTTGGTTGATAGAGATGACCAAGGAGTACTTCTGCAGATATTTACAAAACCCGTTGGTGACAGGCCAACTCTTTTCCTGGAGATGATTCAGAGAATTGGCTGCATGGAGAAAGATGAAAGAGGCGAGGAGTACCAGAAGGGTGGTTGTGGAGGCTTTGGAAAAGGAAACTTCTCAGAGCTGTTCAAGTCCATAGAAGATTACGAGAAAAGTCTAGAAGCCAAGCAGTCTGCTGCAGTGCAAGGTTCCTGA	Non-resistant	100	0	0	0	16	Non-resistant	100	0	0	0	16	0	0	0	16	0	0	0	16	Scores ([2]; topramezone 25 g ai/ha (1×)): 100; Scores ([2]; topramezone 100 g ai/ha (4×)): 100; Resistance evaluation ([2]; topramezone 25 g ai/ha (1×)): non-resistant (non-resistant plants (scores 68-100)); Resistance evaluation ([2]; topramezone 100 g ai/ha (4×)): non-resistant (non-resistant plants (scores 68-100)); Resistance evaluation [3, 4]: Non-resistant; Scores (pesticide damage) [3, 4]: 100; Classification and statistics of the grade of pesticide damage: Grade 0 (number of plants) [3, 4]: 0; Classification and statistics of the grade of pesticide damage: Grade 1 (number of plants) [3, 4]: 0; Classification and statistics of the grade of pesticide damage: Grade 2 (number of plants) [3, 4]: 0; Classification and statistics of the grade of pesticide damage: Grade 3 (number of plants) [3, 4]: 16; Resistance evaluation [3, 5]: Non-resistant; Scores (pesticide damage) [3, 5]: 100; Classification and statistics of the grade of pesticide damage: Grade 0 (number of plants) [3, 5]: 0; Classification and statistics of the grade of pesticide damage: Grade 1 (number of plants) [3, 5]: 0; Classification and statistics of the grade of pesticide damage: Grade 2 (number of plants) [3, 5]: 0; Classification and statistics of the grade of pesticide damage: Grade 3 (number of plants) [3, 5]: 16
HvHPPDm-F372A-F383W-02: nucleotide sequence encoding Hordeum vulgare HPPD with F372A+F383W; vector DBN11765 (nucleic acid, HvHPPDm-F372A-F383W-02 Nucleotide Sequence, vector DBN11765) DNA: ATGCCGCCGACGCCCACCACCCCAGCAGCTACCGGAGCTGCGGCTGCAGTAACCCCTGAGCATGCTCGGCCCCACAGGATGGTGAGGTTTAATCCAAGATCAGATCGTTTTCATACACTCTCGTTCCACCATGTTGAGTTCTGGTGCGCCGACGCGGCTTCAGCGGCCGGGAGGTTCGCCTTCGCGCTGGGGGCCCCTCTTGCCGCGCGTAGTGATTTGTCTACTGGGAATTCAGCGCACGCGTCCCAGCTTCTCCGAAGCGGCAGTCTCGCCTTTCTCTTCACTGCACCATATGCAAATGGATGTGATGCAGCAACTGCTTCCCTGCCGAGCTTTTCTGCGGATGCCGCGAGGCGATTCAGTGCTGACCATGGGATCGCCGTCCGGTCAGTTGCTCTTAGAGTGGCTGATGCTGCTGAGGCATTCAGGGCTTCAAGGCGTCGTGGTGCACGCCCGGCGTTTGCCCCGGTTGATCTTGGGCGGGGGTTTGCTTTTGCAGAGGTGGAGCTGTACGGCGACGTGGTGCTCCGATTTGTTTCTCACCCGGACGGCACTGATGTGCCCTTCTTGCCAGGATTTGAAGGTGTGACCAACCCTGATGCCGTGGATTATGGACTCACAAGATTTGATCATGTGGTTGGCAATGTTCCTGAATTGGCACCTGCTGCCGCTTACATCGCAGGTTTTACTGGCTTCCATGAATTTGCTGAATTCACGGCGGAGGATGTTGGTACAACTGAGTCAGGGCTGAACAGTGTTGTTTTAGCCAACAACTCAGAAGGAGTTCTCCTTCCCTTGAATGAACCTGTTCATGGAACCAAGCGCCGCTCCCAAATTCAAACATTTCTTGAGCACCACGGCGGCCCTGGTGTTCAACATATTGCTGTCGCCTCTAGCGACGTCCTGCGTACATTACGCAAGATGAGGGCTCGGTCCGCAATGGGTGGTTTCGACTTCCTCCCTCCACCATTGCCAAAATATTATGAAGGCGTCAGAAGACTTGCAGGAGATGTCCTCTCTGAAGCTCAGATCAAGGAGTGCCAAGAACTTGGCGTCTTGGTTGATAGAGATGACCAAGGAGTACTTCTGCAGATAGCCACAAAACCCGTTGGTGACAGGCCAACTCTTTGGCTGGAGATGATTCAGAGAATTGGCTGCATGGAGAAAGATGAAAGAGGCGAGGAGTACCAGAAGGGTGGTTGTGGAGGCTTTGGAAAAGGAAACTTCTCAGAGCTGTTCAAGTCCATAGAAGATTACGAGAAAAGTCTAGAAGCCAAGCAGTCTGCTGCAGTGCAAGGTTCCTGA	Highly resistant	8	12	4	0	0	Moderately	29	2	14	0	0	16	0	0	0	10	6	0	0	Scores ([2]; topramezone 25 g ai/ha (1×)): 0; Scores ([2]; topramezone 100 g ai/ha (4×)): 13; Resistance evaluation ([2]; topramezone 25 g ai/ha (1×)): highly; Resistance evaluation ([2]; topramezone 100 g ai/ha (4×)): highly; Resistance evaluation [3, 4]: Moderately; Scores (pesticide damage) [3, 4]: 25; Classification and statistics of the grade of pesticide damage: Grade 0 (number of plants) [3, 4]: 4; Classification and statistics of the grade of pesticide damage: Grade 1 (number of plants) [3, 4]: 12; Classification and statistics of the grade of pesticide damage: Grade 2 (number of plants) [3, 4]: 0; Classification and statistics of the grade of pesticide damage: Grade 3 (number of plants) [3, 4]: 0; Resistance evaluation [3, 5]: Moderately; Scores (pesticide damage) [3, 5]: 33; Classification and statistics of the grade of pesticide damage: Grade 0 (number of plants) [3, 5]: 1; Classification and statistics of the grade of pesticide damage: Grade 1 (number of plants) [3, 5]: 14; Classification and statistics of the grade of pesticide damage: Grade 2 (number of plants) [3, 5]: 1; Classification and statistics of the grade of pesticide damage: Grade 3 (number of plants) [3, 5]: 0
